Four molecules from patent publication US20130171070A1 (Genentech, published 2013) can be followed below.

Broadly, the Kd is the concentration at which binding is half-saturated. Read a low Kd as higher affinity. In general, koff refers to the first-order rate constant of dissociation. Low readings indicate slow dissociation, high ones fast dissociation. A word on the kon: it is the rate constant with which the complex forms. Read a low kon as slow association.

First the molecules themselves.
B1: chimeric 166-32 Fab (Fab, V domains shown)
VH: QIQLVQSGPELKKPGETVKISCKASGYTFTNYGMNWVKQAPGKGLKWMGWINTYTGETTYADDFKGRFVFSLETSASTAYLEINNLKNEDMATYFCEREGGVDNWGQGTTLTVSS
VL: ETTVTQSPASLSMAIGEKVTIRCITSTDIDDDMNWYQQKPGEPPKLLISGGNTLRPGVPSRFSSSGYGADFVFTIDNMLSEDVADYYCLQSDNLPYTFGGGTRLEIK
notes: Tested as a Fab; also called chimeric Fab
B2: humanized anti-Factor D Fab clone #250 (Fab, V domains shown)
VH: QVQLVQSGPELKKPGASVKVSCKASGYTFTNYGLNWVRQAPGQGLEWMGWINTYTGETTYADDFKGRFVFSLDTSVSTAYLQISSLKAEDTAVYYCEREGGVNNWGQGTLVTVSS
VL: DIQVTQSPSSLSASVGDRVTITCITSTDIDDDMNWYQQKPGKVPKLLISHGNTLRPGVPSRFSGSGSGTDFTLTISSLQPEDVATYYCLQSDSLPYTFGQGTKLEIK
B3: humanized anti-Factor D Fab clone #56 (Fab, V domains shown)
VH: QVQLVQSGPELKKPGASVKVSCKASGYTFTNYGMNWVKQAPGQGLEWMGWINTYTGETTYADDFKGRFVFSLDTSVSTAYLQISSLKAEDTATYYCEREGGVDNWGQGTLVTVSS
VL: DIQVTQSPSSLSASVRDRVTITCITSTDIDDDMNWYQQKPGKVPKLLISGGNTLRPGVPSRFSGSGSGTDFTLTISSLQPEDVATYYCLQSDNLPYTFGQGTKLEIK
B4: humanized anti-Factor D Fab clone #416 (Fab, V domains shown)
VH: QVQLVQSGPELKKPGASVKVSCKASGYTFTSYGMNWVRQAPGQGLEWMGWINTYTGETTYADDFKGRFVFSLDTSVSTAYLQISSLKAEDTAVYYCEREGGVNNWGQGTLVTVSS
VL: DIQVTQSPSSLSASVGDRVTITCITSTDIDDDMNWYQQKPGKVPKLLISDGNTLRPGVPSRFSGSGSGTDFTLTISSLQPEDVATYYCLQSDSLPYTFGQGTKLEIK

T1 sequence (P00746 26-253 limits assumed): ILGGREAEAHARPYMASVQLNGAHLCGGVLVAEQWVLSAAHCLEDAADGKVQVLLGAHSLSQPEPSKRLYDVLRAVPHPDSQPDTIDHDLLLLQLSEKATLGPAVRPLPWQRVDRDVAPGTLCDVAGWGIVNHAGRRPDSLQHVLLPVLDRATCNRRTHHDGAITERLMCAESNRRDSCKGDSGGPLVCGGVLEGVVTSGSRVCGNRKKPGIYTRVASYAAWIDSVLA

The experiment has as its target T1, Human factor D (Advanced Research Inc) (human, UniProt P00746 26-253).
T1 construct: Amine-coupled directly to a CM5 chip for BIAcore; also called factor D antigen
The experiment can be described thus: SPR (BIAcore), human factor D amine-coupled to CM5 chip, Fab as analyte, 1:1 model, global fit. Here is the method:
Immobilization—Human factor D (Advanced Research Inc, 0.1 mg/ml) was directly immobilized onto the CM5 chip (BiaCore) using amine-coupling method. The procedure is briefly described as following: (1) Constant flow (PBS) is at 5 μl/min, (2) Injection of 35 μl EDC/NHS (1:1). (3) Injection of 35 μl of human factor D in acetate buffer, pH 4.5. (4) Block the activated group by injection of 35 μl etholamine. (5) Clean-up the surface by 5 μl 10 mM Glycine pH 1.5.
Kinetic analysis—All anti-human factor D Fabs were diluted in PBS buffer. Each sample was prepared in a series of concentrations: 12.5 nM, 25 nM. 50 nM, 75 nM, 100 nM, 125 nM, and 150 nM, with 40 μl injection pulse at high acquisition rate. Regeneration was accomplished by applying 5 μl pulse of 10 mM Glycine at pH 1.5. Kinetic parameters were obtained by fitting Fabs binding traces to 1:1 binding model under pseudo-first order kinetic using BIAvaluation version 3.0. All data are obtained by global fitting routine.
Background: In SPR one partner is held on a chip, and binding of the other changes the refractive index at the surface.
B1 gave a Kd of 2.7 nM, a koff of 0.0012 s⁻¹ and a kon of 440000 M⁻¹ s⁻¹.

The molecule B2 had an equilibrium dissociation constant (Kd) of 0.33 nM, an off-rate (koff) of 0.00019 s⁻¹ and a kon of 570000 M⁻¹ s⁻¹.

In turn, B3 had a Kd of 2.7 nM, a koff of 0.00098 s⁻¹ and an on-rate constant (kon) of 360000 M⁻¹ s⁻¹.

Molecule B4 had a dissociation constant (Kd) of 0.33 nM, a dissociation rate constant (koff) of 0.00018 s⁻¹ and a kon of 820000 M⁻¹ s⁻¹.
